Data reported in paper doi:10.1101/2025.03.26.645558.

Tests used:
[1] = target: E. fergusonii BrxB WT (Escherichia fergusonii); test: SEC; analytical SEC of BrxB alone on Superdex 75 increase 10/300 GL, 10 μM, 20 mM Tris HCl pH 7.9, 150 mM NaCl; monomer and dimer
[2] = target: E. fergusonii BrxB WT (Escherichia fergusonii); test: native MS; collected BrxB SEC peaks exchanged into 10 mM ammonium bicarbonate, 0.5 mg/ml, ES+-ToF MS (Xevo QToF)

Q: With E. fergusonii BrxB WT (natural protein) as the substance, how does the stoichiometry N [1] read?
A: 2

Q: What about the stoichiometry N [2] of the same substance?
A: 2
